Assay results as given in patent US10227387 (CHILDREN S HOSPITAL MEDICAL CENTER, dated 2019).

Molecular target: LRP1 (full-length cDNA of LRP-1, Accession #NM_002332.2) overexpressed on cells (human, UniProt Q07954 20-4544)
Assay: cell-based or functional assay

LRP1 (full-length cDNA of LRP-1, Accession #NM_002332.2) overexpressed on cells, sequence (Q07954 20-4544): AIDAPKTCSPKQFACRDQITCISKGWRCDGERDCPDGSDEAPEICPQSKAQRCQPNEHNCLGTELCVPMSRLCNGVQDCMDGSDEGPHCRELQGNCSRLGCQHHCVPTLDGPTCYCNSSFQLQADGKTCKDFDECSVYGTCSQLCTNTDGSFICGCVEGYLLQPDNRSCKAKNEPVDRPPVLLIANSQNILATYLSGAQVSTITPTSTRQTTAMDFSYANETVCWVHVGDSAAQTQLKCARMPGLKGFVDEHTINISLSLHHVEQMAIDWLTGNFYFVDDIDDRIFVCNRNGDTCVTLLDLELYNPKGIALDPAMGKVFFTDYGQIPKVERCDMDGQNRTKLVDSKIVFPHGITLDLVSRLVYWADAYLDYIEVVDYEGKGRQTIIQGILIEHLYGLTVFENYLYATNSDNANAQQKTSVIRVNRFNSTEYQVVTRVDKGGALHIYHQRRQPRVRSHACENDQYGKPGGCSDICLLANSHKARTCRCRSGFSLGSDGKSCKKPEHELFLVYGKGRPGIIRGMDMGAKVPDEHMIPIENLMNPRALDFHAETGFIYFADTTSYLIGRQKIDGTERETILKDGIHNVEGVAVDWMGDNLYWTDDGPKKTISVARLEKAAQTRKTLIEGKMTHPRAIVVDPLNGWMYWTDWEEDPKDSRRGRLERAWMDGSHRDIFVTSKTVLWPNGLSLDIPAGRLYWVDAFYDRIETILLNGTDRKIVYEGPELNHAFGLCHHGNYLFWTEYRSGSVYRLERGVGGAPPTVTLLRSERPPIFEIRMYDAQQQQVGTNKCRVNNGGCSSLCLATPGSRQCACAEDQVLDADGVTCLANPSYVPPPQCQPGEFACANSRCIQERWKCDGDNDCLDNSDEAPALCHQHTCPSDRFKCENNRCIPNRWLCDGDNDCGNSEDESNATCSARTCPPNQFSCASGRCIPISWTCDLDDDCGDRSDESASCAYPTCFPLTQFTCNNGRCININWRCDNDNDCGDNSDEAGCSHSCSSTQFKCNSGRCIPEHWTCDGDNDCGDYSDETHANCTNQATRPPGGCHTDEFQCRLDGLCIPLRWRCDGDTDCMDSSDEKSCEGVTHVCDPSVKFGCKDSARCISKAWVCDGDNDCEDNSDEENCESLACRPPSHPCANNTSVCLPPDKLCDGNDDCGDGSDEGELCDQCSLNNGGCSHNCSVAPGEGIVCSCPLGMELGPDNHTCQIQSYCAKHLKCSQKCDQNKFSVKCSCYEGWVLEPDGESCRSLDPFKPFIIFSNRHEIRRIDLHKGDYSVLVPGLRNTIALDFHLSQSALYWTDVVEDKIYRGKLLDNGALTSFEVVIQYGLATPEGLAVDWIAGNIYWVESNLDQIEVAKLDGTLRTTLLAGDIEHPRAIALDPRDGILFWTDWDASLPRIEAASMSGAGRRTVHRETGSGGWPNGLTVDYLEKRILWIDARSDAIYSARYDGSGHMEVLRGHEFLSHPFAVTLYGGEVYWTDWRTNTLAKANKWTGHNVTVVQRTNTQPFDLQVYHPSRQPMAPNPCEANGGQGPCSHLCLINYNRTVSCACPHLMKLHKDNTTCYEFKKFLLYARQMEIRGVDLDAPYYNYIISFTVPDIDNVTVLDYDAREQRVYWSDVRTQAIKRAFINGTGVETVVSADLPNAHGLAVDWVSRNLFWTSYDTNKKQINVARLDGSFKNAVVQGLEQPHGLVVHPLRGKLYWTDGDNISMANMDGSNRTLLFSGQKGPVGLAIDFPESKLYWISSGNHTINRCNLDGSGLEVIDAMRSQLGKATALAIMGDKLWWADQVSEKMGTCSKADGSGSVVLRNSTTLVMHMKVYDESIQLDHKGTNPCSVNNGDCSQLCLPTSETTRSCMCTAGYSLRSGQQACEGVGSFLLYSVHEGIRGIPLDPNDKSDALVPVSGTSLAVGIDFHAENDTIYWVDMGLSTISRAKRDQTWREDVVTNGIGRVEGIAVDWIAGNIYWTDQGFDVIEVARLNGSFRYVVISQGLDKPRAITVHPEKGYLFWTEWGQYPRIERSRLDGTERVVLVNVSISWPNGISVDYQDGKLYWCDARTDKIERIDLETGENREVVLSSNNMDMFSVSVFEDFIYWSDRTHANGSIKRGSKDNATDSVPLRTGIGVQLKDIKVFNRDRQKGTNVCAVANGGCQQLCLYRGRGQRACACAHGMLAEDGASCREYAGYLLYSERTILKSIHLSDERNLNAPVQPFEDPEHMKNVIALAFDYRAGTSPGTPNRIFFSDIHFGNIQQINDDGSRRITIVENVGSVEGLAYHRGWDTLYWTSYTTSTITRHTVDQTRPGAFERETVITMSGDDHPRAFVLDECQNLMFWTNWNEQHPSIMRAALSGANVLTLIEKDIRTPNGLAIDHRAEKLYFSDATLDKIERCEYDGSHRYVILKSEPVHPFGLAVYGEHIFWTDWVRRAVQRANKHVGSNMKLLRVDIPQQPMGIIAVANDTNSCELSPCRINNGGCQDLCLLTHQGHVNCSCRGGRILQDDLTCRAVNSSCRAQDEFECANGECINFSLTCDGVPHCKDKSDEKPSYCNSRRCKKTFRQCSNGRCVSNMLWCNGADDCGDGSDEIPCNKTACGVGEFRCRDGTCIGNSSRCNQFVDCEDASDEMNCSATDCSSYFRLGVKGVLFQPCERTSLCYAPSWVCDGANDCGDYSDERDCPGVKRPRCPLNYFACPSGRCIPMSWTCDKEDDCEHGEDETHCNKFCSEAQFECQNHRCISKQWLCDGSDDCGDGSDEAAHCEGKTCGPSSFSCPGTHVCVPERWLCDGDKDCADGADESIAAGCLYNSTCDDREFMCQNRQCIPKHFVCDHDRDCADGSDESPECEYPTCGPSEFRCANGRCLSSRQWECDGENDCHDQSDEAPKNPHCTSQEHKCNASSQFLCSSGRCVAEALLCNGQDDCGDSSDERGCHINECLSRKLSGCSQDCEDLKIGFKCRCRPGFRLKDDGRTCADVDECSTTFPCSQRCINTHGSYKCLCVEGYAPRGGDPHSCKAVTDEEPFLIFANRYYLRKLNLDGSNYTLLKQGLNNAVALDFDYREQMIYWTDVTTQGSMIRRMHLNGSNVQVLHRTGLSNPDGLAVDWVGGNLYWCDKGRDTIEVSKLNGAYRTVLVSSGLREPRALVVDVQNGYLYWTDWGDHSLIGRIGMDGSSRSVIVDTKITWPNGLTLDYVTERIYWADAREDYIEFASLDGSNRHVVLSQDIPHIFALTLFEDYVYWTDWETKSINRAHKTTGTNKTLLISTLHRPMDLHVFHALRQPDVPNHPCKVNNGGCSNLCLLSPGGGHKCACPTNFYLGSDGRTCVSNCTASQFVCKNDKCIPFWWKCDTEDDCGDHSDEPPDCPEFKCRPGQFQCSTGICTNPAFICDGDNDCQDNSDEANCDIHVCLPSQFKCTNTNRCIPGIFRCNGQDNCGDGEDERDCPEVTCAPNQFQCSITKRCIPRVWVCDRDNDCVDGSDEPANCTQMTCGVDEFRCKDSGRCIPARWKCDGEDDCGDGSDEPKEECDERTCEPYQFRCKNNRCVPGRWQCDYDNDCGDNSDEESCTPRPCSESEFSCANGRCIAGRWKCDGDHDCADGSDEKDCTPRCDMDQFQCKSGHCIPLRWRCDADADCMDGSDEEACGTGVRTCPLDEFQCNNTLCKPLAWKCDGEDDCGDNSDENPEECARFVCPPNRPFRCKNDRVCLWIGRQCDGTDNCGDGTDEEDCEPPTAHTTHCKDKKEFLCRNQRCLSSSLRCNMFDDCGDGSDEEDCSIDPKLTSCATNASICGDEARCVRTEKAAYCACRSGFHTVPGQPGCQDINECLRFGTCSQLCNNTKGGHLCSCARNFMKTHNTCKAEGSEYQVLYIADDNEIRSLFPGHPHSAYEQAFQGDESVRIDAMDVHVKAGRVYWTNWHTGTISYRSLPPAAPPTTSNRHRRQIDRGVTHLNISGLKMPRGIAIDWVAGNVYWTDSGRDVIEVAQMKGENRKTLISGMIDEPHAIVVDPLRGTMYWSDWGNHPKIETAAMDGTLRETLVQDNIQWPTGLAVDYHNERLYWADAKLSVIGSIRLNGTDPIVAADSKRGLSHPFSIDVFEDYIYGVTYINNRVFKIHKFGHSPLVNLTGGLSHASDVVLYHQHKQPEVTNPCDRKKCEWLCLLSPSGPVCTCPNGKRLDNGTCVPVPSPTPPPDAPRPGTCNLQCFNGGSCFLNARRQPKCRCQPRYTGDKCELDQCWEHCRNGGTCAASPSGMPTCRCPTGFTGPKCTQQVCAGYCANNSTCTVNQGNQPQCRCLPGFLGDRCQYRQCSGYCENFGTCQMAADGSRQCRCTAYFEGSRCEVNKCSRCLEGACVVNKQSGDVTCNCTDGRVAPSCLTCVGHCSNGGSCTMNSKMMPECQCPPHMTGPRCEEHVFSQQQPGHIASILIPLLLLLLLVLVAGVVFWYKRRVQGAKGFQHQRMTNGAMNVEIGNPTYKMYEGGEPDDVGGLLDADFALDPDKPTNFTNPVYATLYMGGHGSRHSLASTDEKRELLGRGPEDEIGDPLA

B1: IDUAe1 (enzyme)
chain: APHLVHVDAARALWPLRRFWRSTGFCPPLPHSQADQYVLSWDQQLNLAYVGAVPHRGIKQVRTHWLLELVTTRGSTGRGLSYNFTHLDGYLDLLRENQLLPGFELMGSASGHFTDFEDKQQVFEWKDLVSSLARRYIGRYGLAHVSKWNFETWNEPDHHDFDNVSMTMQGFLNYYDACSEGLRAASPALRLGGPGDSFHTPPRSPLSWGLLRHCHDGTNFFTGEAGVRLDYISLHRKGARSSISILEQEKVVAQQIRQLFPKFADTPIYNDEADPLVGWSLPQPWRADVTYAAMVVKVIAQHQNLLLANTTSAFPYALLSNDNAFLSYHPHPFAQRTLTARFQVNNTRPPHVQLLRKPVLTAMGLLALLDEEQLWAEVSQAGTVLDSNHTVGVLASAHRPQGPADAWRAAVLIYASDDTRAHPNRSVAVTLRLRGVPPGPGLVYVTRYLDNGLCSPDGEWRRLGRPVFPTAEQFRRMRAAEDPVAAAPRPLPAGGRLTLRPALRLPSLLLVHVCARPEKPPGQVTRLRALPLTQGQLVLVWSDEHVGSKCLWTYEIQFSQDGKAYTPVSRKPSTFNLFVFSPDTGAVSGSYRVRALDYWARPGPFSDPVPYLEVPVPRGPPSPGNPILKKATAYILLRKLRKRLLLRKLRKRLL
  intracellular enzyme level in pause-chase uptake assay, CHO^LDLRneg-LRP1 cells, against unmodified IDUA: 2 fold
